± gives the standard deviation of the averaged measurements.
B1: library; a variant is named by its letters at N, in order (parent)
chain: GCUGUCACCGGUGUAUUACCCUAGUGGUCGACCGGUCUGAUGAGUCUNNNNNNAGACGAAACAGC

Assays:
[1] = variants of: B1; assay: normalized RNA/DNA level with ligand (relative to sTRSVctl = 100) (log10 (% of sTRSVctl)); ligand: hypoxanthine (xanthine aptamer); higher = less ribozyme self-cleavage, higher mRNA level; conditions: ligand concentration (+) RNA-Seq: 5 mM, HEK293T, reporter: mCherry (pCS4076), ligand present: yes
How it was run: (§1)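 For each 6-well well, 4 µg of library plasmid encoding mCherry-linked ribozyme switches, or eGFP-linked ones in some ligand experiments, was transfected into HEK293T. Any ligand was added 1 h before transfection, and RNA was extracted with EDTA 72 h after it, then reverse-transcribed, amplified, barcoded and sequenced. RNA level was obtained by dividing RNA reads by DNA reads, normalizing to a spiked-in non-cleaving sequence or to the top sequences, then scaling and log-transforming. The top set was 25 sequences, scaling was ×100 with log10, and ≥100 DNA reads were required.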

[2] = variants of: B1; assay: normalized RNA/DNA level without ligand (relative to sTRSVctl = 100) (log10 (% of sTRSVctl)); ligand: hypoxanthine (xanthine aptamer); higher = less ribozyme self-cleavage, higher mRNA level; conditions: HEK293T, reporter: mCherry (pCS4076), ligand present: no
How it was run: as §1

Row | Variant | normalized RNA/DNA level with ligand (log10) [1] | normalized RNA/DNA level without ligand (log10) [2]
1 | GUAACU | 1.94 ± 0.03 | 1.878 ± 0.005
2 | AGAUCU | 1.94 ± 0.051 | 1.829 ± 0.015
3 | GUUAGU | 1.9 ± 0.1 | 1.786 ± 0.011
4 | CCUAAG | 1.91 ± 0.05 | 1.66 ± 0.013
5 | CGCUGU | 1.94 ± 0.06 | 1.9375 ± 0.00087
6 | GCUCAU | 1.95 ± 0.026 | 1.801 ± 0.018
7 | GACCUC | 1.93 ± 0.031 | 1.909 ± 0.0094
8 | AGAAGC | 1.918 ± 0.0099 | 1.7002 ± 0.0015
9 | CCACUU | 1.94 ± 0.024 | 1.914 ± 0.019
10 | UGGGAA | 1.86 ± 0.054 | 1.64 ± 0.036
11 | UUACGA | 1.923 ± 0.01 | 1.89 ± 0.022
12 | AAUUUC | 1.91 ± 0.0075 | 1.926 ± 0.0082
13 | AACGUU | 1.91 ± 0.0075 | 1.829 ± 0.017
14 | CGGACG | 2.01 ± 0.03 | 1.72 ± 0.043
15 | GGCACU | 2.011 ± 0.0022 | 1.99 ± 0.025
16 | UUAAAC | 1.915 ± 0.008 | 1.791 ± 0.01
17 | AGUAGC | 1.911 ± 0.012 | 1.64 ± 0.08
18 | AUAACG | 1.87 ± 0.062 | 1.43 ± 0.11
19 | AGAAUU | 1.926 ± 0.017 | 1.86 ± 0.025
20 | CGAAUG | 1.913 ± 0.003 | 1.883 ± 0.008
21 | CGAAUC | 1.98 ± 0.028 | 1.96 ± 0.042
22 | UCCAGG | 1.9095 ± 0.00051 | 1.8002 ± 0.0018
23 | UCCAGC | 2.03 ± 0.048 | 1.9 ± 0.082

Row | Variant | normalized RNA/DNA level with ligand (log10) [1] | normalized RNA/DNA level without ligand (log10) [2]
24 | GAAGGU | 1.91 ± 0.068 | 1.73 ± 0.06
25 | ACGAUU | 1.837 ± 0.0076 | 1.32 ± 0.019
26 | GCACGA | 1.925 ± 0.0075 | 1.75 ± 0.077
27 | CCGCAU | 1.96 ± 0.048 | 1.786 ± 0.0041
28 | GCGUGC | 1.949 ± 0.016 | 1.619 ± 0.006
29 | AGGGAU | 1.89 ± 0.051 | 1.713 ± 0.0045
30 | GAUCGA | 1.952 ± 0.0048 | 1.809 ± 0.0024
31 | GCACAC | 1.9 ± 0.042 | 1.63 ± 0.057
32 | AAUCCA | 1.92 ± 0.046 | 1.865 ± 0.015
33 | CCCCGG | 1.985 ± 0.0052 | 1.97 ± 0.035
34 | CUGGAG | 1.86 ± 0.019 | 1.62 ± 0.037
35 | UGGGCC | 1.96 ± 0.04 | 2.019 ± 0.012
36 | CCCAAU | 1.93 ± 0.026 | 1.83 ± 0.04
37 | CCCAAC | 1.96 ± 0.072 | 1.87 ± 0.023
38 | UGUCCA | 1.89 ± 0.061 | 1.88 ± 0.057
39 | UCCCAA | 1.918 ± 0.011 | 1.765 ± 0.0033
40 | CCUUAC | 1.94 ± 0.025 | 1.829 ± 0.0071
41 | ACAGCA | 1.94 ± 0.032 | 1.81 ± 0.028
42 | AUGGGU | 1.88 ± 0.066 | 1.534 ± 0.0046
43 | GGCCUC | 1.99 ± 0.13 | 1.96 ± 0.084
44 | CACGUU | 1.96 ± 0.024 | 1.864 ± 0.0061
45 | UUCUAG | 1.936 ± 0.0068 | 1.67 ± 0.059
46 | AUCACU | 1.98 ± 0.024 | 1.884 ± 0.0058

Row | Variant | normalized RNA/DNA level with ligand (log10) [1] | normalized RNA/DNA level without ligand (log10) [2]
47 | UAGGCG | 1.892 ± 0.01 | 1.67 ± 0.037
48 | CCUGGU | 1.945 ± 0.014 | 1.88 ± 0.0076
49 | UCAUCG | 1.99 ± 0.049 | 1.83 ± 0.058
50 | UGGUCC | 1.98 ± 0.035 | 1.93 ± 0.039
51 | AUGACU | 1.95 ± 0.024 | 1.829 ± 0.016
52 | AUACCA | 1.91 ± 0.02 | 1.88 ± 0.031
53 | CGUUUU | 1.92 ± 0.073 | 1.833 ± 0.014
54 | UAUAAA | 1.89 ± 0.025 | 1.77 ± 0.04
55 | CCGCGC | 1.963 ± 0.0058 | 1.7 ± 0.06
56 | CACCUA | 1.921 ± 0.0097 | 1.76 ± 0.11
57 | GUAUCG | 1.9 ± 0.042 | 1.57 ± 0.017
58 | AUAUUU | 1.903 ± 0.0024 | 1.89 ± 0.057
59 | UUCUCC | 1.97 ± 0.072 | 1.99 ± 0.082
60 | GGGACA | 1.938 ± 0.016 | 1.802 ± 0.011
61 | UGCACC | 1.92 ± 0.057 | 1.93 ± 0.024
62 | UGCACU | 1.94 ± 0.088 | 1.9 ± 0.0073
63 | UGGCGC | 2 ± 0.04 | 2 ± 0.027
64 | CCAGGG | 1.89 ± 0.11 | 1.37 ± 0.044
65 | CUUAGG | 1.94 ± 0.075 | 1.84 ± 0.053
66 | ACAGAA | 1.922 ± 0.012 | 1.7472 ± 0.0012
67 | ACAGUA | 1.908 ± 0.015 | 1.76 ± 0.029
68 | CGAACU | 1.93 ± 0.056 | 1.79 ± 0.018
69 | CGAACG | 1.96 ± 0.038 | 1.8 ± 0.035

Row | Variant | normalized RNA/DNA level with ligand (log10) [1] | normalized RNA/DNA level without ligand (log10) [2]
70 | UUCAUU | 1.95 ± 0.025 | 1.91 ± 0.071
71 | AUUCAC | 1.953 ± 0.019 | 1.891 ± 0.0042
72 | CAUUCG | 1.943 ± 0.012 | 1.89 ± 0.07
73 | UACGCG | 1.893 ± 0.018 | 1.62 ± 0.069
74 | CGACUA | 1.95 ± 0.079 | 1.698 ± 0.0058
75 | CUACCG | 1.95 ± 0.025 | 1.8 ± 0.026
76 | UGAAAG | 1.862 ± 0.017 | 1.72 ± 0.039
77 | UCCACC | 2.02 ± 0.029 | 1.931 ± 0.018
78 | CAAAGG | 1.751 ± 0.005 | 1.26 ± 0.062
79 | GCCUGU | 1.93 ± 0.024 | 1.83 ± 0.015
80 | AACCUA | 1.93 ± 0.028 | 1.84 ± 0.047
81 | GAUGUA | 1.887 ± 0.018 | 1.79 ± 0.03
82 | CGUGAU | 1.9 ± 0.032 | 1.73 ± 0.024
83 | GUUUCG | 1.9698 ± 0.0015 | 2.01 ± 0.098
84 | GUUUCU | 2 ± 0.063 | 2.02 ± 0.027
85 | AAUGAA | 1.872 ± 0.0038 | 1.71 ± 0.018
86 | CCCACG | 1.917 ± 0.019 | 1.83 ± 0.029
87 | GGUCUG | 1.87 ± 0.06 | 1.71 ± 0.029
88 | UAUACG | 1.83 ± 0.042 | 1.686 ± 0.008
89 | CUGCCA | 2.03 ± 0.043 | 1.886 ± 0.011
90 | CCAACA | 1.93 ± 0.022 | 1.883 ± 0.017
91 | UGCUGU | 1.95 ± 0.0027 | 1.92 ± 0.03
92 | CCGUAU | 1.91 ± 0.033 | 1.749 ± 0.0044

Row | Variant | normalized RNA/DNA level with ligand (log10) [1] | normalized RNA/DNA level without ligand (log10) [2]
93 | GUUUGA | 1.97 ± 0.0084 | 1.75 ± 0.032
94 | CCCUGC | 2.04 ± 0.059 | 1.901 ± 0.0066
95 | CGCCGA | 2.04 ± 0.052 | 1.89 ± 0.042
96 | UCUAAC | 1.9378 ± 0.00086 | 1.85 ± 0.013
97 | CGACCU | 1.98 ± 0.032 | 1.92 ± 0.056
98 | UCGGUU | 1.938 ± 0.006 | 1.61 ± 0.04
99 | CGCGUG | 1.97 ± 0.068 | 1.73 ± 0.082
100 | GUCUGC | 1.92 ± 0.038 | 1.707 ± 0.0074
101 | GGCCGA | 1.98 ± 0.038 | 1.854 ± 0.014
102 | UCACUC | 1.99 ± 0.02 | 2.03 ± 0.026
103 | CUGGCA | 1.971 ± 0.0092 | 1.88 ± 0.039
104 | AGACUA | 1.95 ± 0.056 | 1.762 ± 0.0092
105 | GUACUA | 1.937 ± 0.014 | 1.86 ± 0.037
106 | GGUUUC | 1.946 ± 0.011 | 1.916 ± 0.0058
107 | CGACAA | 1.89 ± 0.061 | 1.64 ± 0.012
108 | UCACGC | 1.94 ± 0.033 | 1.78 ± 0.13
109 | CAUGUU | 1.94 ± 0.026 | 1.879 ± 0.0072
110 | CAUGUG | 1.93 ± 0.02 | 1.882 ± 0.012
111 | CAUGUA | 1.91 ± 0.011 | 1.771 ± 0.0036
112 | UCGCGA | 1.89 ± 0.03 | 1.69 ± 0.071
113 | CAAGAC | 1.9181 ± 0.0013 | 1.825 ± 0.015
114 | GUUGAA | 1.918 ± 0.016 | 1.744 ± 0.0083
115 | UAUGCC | 1.935 ± 0.0058 | 1.87 ± 0.067

Source: the supplement of paper PMC6757056
